According to patent US20230257473A1 (TENEOBIO, published 2023):
Values belong to the binder of their own block, whether it stands above or below them.

Assays:
[1] = target: BCMA on BCMA-expressing cells (H929 / NCI-H929, MM1.S, U266, Daudi) (human) (UniProt Q02223); test: flow cytometry on H929 cells; antibody 0.391 ng/ml
[2] = target: BCMA on BCMA-expressing cells (H929 / NCI-H929, MM1.S, U266, Daudi) (human) (UniProt Q02223); test: flow cytometry on H929 cells; antibody 6.250 ng/ml
[3] = target: BCMA on BCMA-expressing cells (H929 / NCI-H929, MM1.S, U266, Daudi) (human) (UniProt Q02223); test: flow cytometry on MM1.S cells; antibody 0.391 ng/ml
[4] = target: BCMA on BCMA-expressing cells (H929 / NCI-H929, MM1.S, U266, Daudi) (human) (UniProt Q02223); test: flow cytometry on MM1.S cells; antibody 0.781 ng/ml
[5] = target: BCMA on BCMA-expressing cells (H929 / NCI-H929, MM1.S, U266, Daudi) (human) (UniProt Q02223); test: flow cytometry on MM1.S cells; antibody 1.560 ng/ml
[6] = target: recombinant BCMA (R&D Systems, catalog no. 193-BC) (human) (UniProt Q02223); test: competitive ELISA, plate-bound BCMA; Ab 0.002 ng/mL; competitor APRIL 0.00 ng/mL
Chain of recombinant BCMA (R&D Systems, catalog no. 193-BC) (human) (Q02223 5-51 limits assumed): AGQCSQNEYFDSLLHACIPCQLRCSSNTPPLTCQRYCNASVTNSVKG

[7] = target: recombinant BCMA (R&D Systems, catalog no. 193-BC) (human) (UniProt Q02223); test: competitive ELISA, plate-bound BCMA; Ab 0.200 ng/mL; competitor APRIL 7.81 ng/mL
[8] = target: recombinant BCMA (R&D Systems, catalog no. 193-BC) (human) (UniProt Q02223); test: competitive ELISA, plate-bound BCMA; Ab 0.002 ng/mL; competitor APRIL 15.63 ng/mL
[9] = target: recombinant BCMA (R&D Systems, catalog no. 193-BC) (human) (UniProt Q02223); test: competitive ELISA, plate-bound BCMA; Ab 0.020 ng/mL; competitor APRIL 15.63 ng/mL
[10] = target: recombinant BCMA (R&D Systems, catalog no. 193-BC) (human) (UniProt Q02223); test: competitive ELISA, plate-bound BCMA; Ab 0.200 ng/mL; competitor APRIL 31.25 ng/mL
[11] = target: recombinant BCMA (R&D Systems, catalog no. 193-BC) (human) (UniProt Q02223); test: competitive ELISA, plate-bound BCMA; Ab 2.000 ng/mL; competitor APRIL 31.25 ng/mL
[12] = target: recombinant BCMA (R&D Systems, catalog no. 193-BC) (human) (UniProt Q02223); test: competitive ELISA, plate-bound BCMA; Ab 2.000 ng/mL; competitor APRIL 62.50 ng/mL
[13] = target: recombinant BCMA (R&D Systems, catalog no. 193-BC) (human) (UniProt Q02223); test: competitive ELISA, plate-bound BCMA; Ab 20.000 ng/mL; competitor APRIL 0.00 ng/mL
[14] = target: recombinant BCMA (R&D Systems, catalog no. 193-BC) (human) (UniProt Q02223); test: competitive ELISA, plate-bound BCMA; Ab 0.002 ng/mL; competitor APRIL 125.00 ng/mL
[15] = target: recombinant BCMA (R&D Systems, catalog no. 193-BC) (human) (UniProt Q02223); test: competitive ELISA, plate-bound BCMA; Ab 0.002 ng/mL; competitor APRIL 500.00 ng/mL
[16] = target: recombinant BCMA (R&D Systems, catalog no. 193-BC) (human) (UniProt Q02223); test: competitive ELISA, plate-bound BCMA; Ab 0.020 ng/mL; competitor APRIL 125.00 ng/mL
[17] = target: recombinant BCMA (R&D Systems, catalog no. 193-BC) (human) (UniProt Q02223); test: competitive ELISA, plate-bound BCMA; Ab 0.200 ng/mL; competitor APRIL 125.00 ng/mL
[18] = target: recombinant BCMA (R&D Systems, catalog no. 193-BC) (human) (UniProt Q02223); test: competitive ELISA, plate-bound BCMA; Ab 2.000 ng/mL; competitor APRIL 500.00 ng/mL
[19] = target: recombinant BCMA (R&D Systems, catalog no. 193-BC) (human) (UniProt Q02223); test: competitive ELISA, plate-bound BCMA; Ab 20.000 ng/mL; competitor APRIL 62.50 ng/mL
[20] = target: recombinant BCMA (R&D Systems, catalog no. 193-BC) (human) (UniProt Q02223); test: competitive ELISA, plate-bound BCMA; Ab 200.000 ng/mL; competitor APRIL 7.81 ng/mL
[21] = target: recombinant BCMA (R&D Systems, catalog no. 193-BC) (human) (UniProt Q02223); test: competitive ELISA, plate-bound BCMA; Ab 20.000 ng/mL; competitor APRIL 125.00 ng/mL
[22] = target: recombinant BCMA (R&D Systems, catalog no. 193-BC) (human) (UniProt Q02223); test: competitive ELISA, plate-bound BCMA; Ab 20.000 ng/mL; competitor APRIL 500.00 ng/mL
[23] = target: recombinant BCMA (R&D Systems, catalog no. 193-BC) (human) (UniProt Q02223); test: competitive ELISA, plate-bound BCMA; Ab 200.000 ng/mL; competitor APRIL 15.63 ng/mL
[24] = target: recombinant BCMA (R&D Systems, catalog no. 193-BC) (human) (UniProt Q02223); test: competitive ELISA, plate-bound BCMA; Ab 200.000 ng/mL; competitor APRIL 31.25 ng/mL
[25] = target: recombinant BCMA (R&D Systems, catalog no. 193-BC) (human) (UniProt Q02223); test: competitive ELISA, plate-bound BCMA; Ab 200.000 ng/mL; competitor APRIL 125.00 ng/mL
[26] = target: recombinant BCMA (R&D Systems, catalog no. 193-BC) (human) (UniProt Q02223); test: competitive ELISA, plate-bound BCMA; Ab 200.000 ng/mL; competitor APRIL 250.00 ng/mL

Chain of BCMA on BCMA-expressing cells (H929 / NCI-H929, MM1.S, U266, Daudi) (human) (Q02223 whole entry): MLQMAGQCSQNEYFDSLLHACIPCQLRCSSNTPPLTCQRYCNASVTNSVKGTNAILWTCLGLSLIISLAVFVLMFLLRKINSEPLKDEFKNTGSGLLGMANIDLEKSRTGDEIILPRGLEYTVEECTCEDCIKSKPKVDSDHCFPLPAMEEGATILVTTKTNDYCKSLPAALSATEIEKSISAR

MFI [1]: 5040
MFI [2]: 5220
MFI [3]: 2030
MFI [4]: 2010
MFI [5]: 2030
A450-A570 [6]: 0.0578
A450-A570 [7]: 0.0577
A450-A570 [8]: 0.062
A450-A570 [9]: 0.0584
A450-A570 [10]: 0.0601
A450-A570 [11]: 0.121
A450-A570 [12]: 0.098
A450-A570 [13]: 0.648
A450-A570 [14]: 0.0607
A450-A570 [15]: 0.0617
A450-A570 [16]: 0.0557
A450-A570 [17]: 0.0651
A450-A570 [18]: 0.0732
A450-A570 [19]: 0.537
A450-A570 [20]: 2.47
A450-A570 [21]: 0.637
A450-A570 [22]: 0.253
A450-A570 [23]: 2.37
A450-A570 [24]: 2.42
A450-A570 [25]: 2.3
A450-A570 [26]: 2.21
B1: AntiX**BCMA_F7E_F7E (bispecific antibody, part only; not given: other chains of three-chain format, not shown: another chain or arm of the molecule)
tandem VH: QVQLVESGGGLVQPGGSLRLSCVASGFTFSSNAMSWVRQAPGKGLEWVSAISGSGDYTHYSDSVKGRFTISRDNSKNTLYLQMNSLRAEDTAVYYCAKEVPGGPLVDFDSRGQGTLVTVSSGGGGSGGGGSQVQLVESGGGLVQPGGSLRLSCVASGFTFSSNAMSWVRQAPGKGLEWVSAISGSGDYTHYSDSVKGRFTISRDNSKNTLYLQMNSLRAEDTAVYYCAKEVPGGPLVDFDSRGQGTLVTVSS

MFI [1]: 5030
MFI [2]: 5240
MFI [3]: 2070
MFI [4]: 2060
MFI [5]: 2110
A450-A570 [6]: 0.0616
A450-A570 [7]: 0.0643
A450-A570 [8]: 0.0607
A450-A570 [9]: 0.0614
A450-A570 [10]: 0.062
A450-A570 [11]: 0.0875
A450-A570 [12]: 0.0834
A450-A570 [13]: 0.466
A450-A570 [14]: 0.066
A450-A570 [15]: 0.0836
A450-A570 [16]: 0.064
A450-A570 [17]: 0.0643
A450-A570 [18]: 0.0711
A450-A570 [19]: 0.359
A450-A570 [20]: 2.51
A450-A570 [21]: 0.203
A450-A570 [22]: 0.112
A450-A570 [23]: 2.4
A450-A570 [24]: 2.29
A450-A570 [25]: 1.37
A450-A570 [26]: 0.969
B2: anti-BCMA heavy chain-only antibody (UniAb) with the VH of SEQ ID NO: 12 (antibody, V domains shown)
VH: QVQLVESGGGLVQPGGSLRLSCVASGFTFSSNAMSWVRQAPGKGLEWVSAISGSGDYTHYSDSVKGRFTISRDNSKNTLYLQMNSLRAEDTAVYYCAKEVPGGPLVDFDSRGQGTLVTVSS
notes: Heavy chain-only antibody from UniRat; also called Clone ID No: 316302
